In IntAct's records for PubMed 20308558:

B1: Ras-related protein Rab-11A (Homo sapiens), P62491 (parent)
chain: MGTRDDEYDYLFKVVLIGDSGVGKSNLLSRFTRNEFNLESKSTIGVEFATRSIQVDGKTIKAQIWDTAGQERYRAITSAYYRGAVGALLVYDIAKHLTYENVERWLKELRDHADSNIVIMLVGNKSDLRHLRAVPTDEARAFAEKNGLSFIETSALDSTNVEAAFQTILTEIYRIVSQKQMSDRRENDMSPSNNVVPIHVPPTTENKPKVQCCQNI
partner: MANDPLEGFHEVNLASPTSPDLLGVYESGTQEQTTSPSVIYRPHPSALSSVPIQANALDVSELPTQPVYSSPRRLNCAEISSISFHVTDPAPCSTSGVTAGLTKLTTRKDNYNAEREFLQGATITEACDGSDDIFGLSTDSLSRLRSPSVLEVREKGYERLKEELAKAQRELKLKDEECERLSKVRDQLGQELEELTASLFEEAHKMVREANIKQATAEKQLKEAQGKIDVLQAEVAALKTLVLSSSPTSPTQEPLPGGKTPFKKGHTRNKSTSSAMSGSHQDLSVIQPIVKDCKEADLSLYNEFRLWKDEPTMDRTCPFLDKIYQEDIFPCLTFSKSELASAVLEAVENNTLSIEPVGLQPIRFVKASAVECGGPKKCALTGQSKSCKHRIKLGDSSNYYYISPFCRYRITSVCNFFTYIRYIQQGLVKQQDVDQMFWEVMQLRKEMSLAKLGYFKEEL

Variants of: B1
Settings: with RAB3IP
For MGTRDDEYDYLFKVVLIGDSGVGKNNLLSRFTRNEFNLESKSTIGVEFATRSIQVDGKTIKAQIWDTAGQERYRAITSAYYRGAVGALLVYDIAKHLTYENVERWLKELRDHADSNIVIMLVGNKSDLRHLRAVPTDEARAFAEKNGLSFIETSALDSTNVEAAFQTILTEIYRIVSQKQMSDRRENDMSPSNNVVPIHVPPTTENKPKVQCCQNI [S25N], the “effect of a mutation on the interaction” value was “decreasing interaction”.
For MGTRDDEYDYLFKVVLIGDSGVGKSNLLSRFTRNEFNLESKSTIGVEFATRSIQVDGKTIKAQIWDTAGLERYRAITSAYYRGAVGALLVYDIAKHLTYENVERWLKELRDHADSNIVIMLVGNKSDLRHLRAVPTDEARAFAEKNGLSFIETSALDSTNVEAAFQTILTEIYRIVSQKQMSDRRENDMSPSNNVVPIHVPPTTENKPKVQCCQNI [Q70L], the “effect of a mutation on the interaction” value was “increasing interaction”.
